Data on 11 molecules can be found in patent US20250276075A1, “METHODS OF TREATING AXL-EXPRESSING CANCERS WITH ANTI-AXL ANTIBODIES, ANTIBODY FRAGMENTS AND THEIR IMMUNOCONJUGATES” (BIOATLA, INC., priority 2020, published 2025).

Assay [1] addresses T1, Axl (Homo sapiens, UniProt P30530).
T1 sequence (P30530 26-451 limits assumed): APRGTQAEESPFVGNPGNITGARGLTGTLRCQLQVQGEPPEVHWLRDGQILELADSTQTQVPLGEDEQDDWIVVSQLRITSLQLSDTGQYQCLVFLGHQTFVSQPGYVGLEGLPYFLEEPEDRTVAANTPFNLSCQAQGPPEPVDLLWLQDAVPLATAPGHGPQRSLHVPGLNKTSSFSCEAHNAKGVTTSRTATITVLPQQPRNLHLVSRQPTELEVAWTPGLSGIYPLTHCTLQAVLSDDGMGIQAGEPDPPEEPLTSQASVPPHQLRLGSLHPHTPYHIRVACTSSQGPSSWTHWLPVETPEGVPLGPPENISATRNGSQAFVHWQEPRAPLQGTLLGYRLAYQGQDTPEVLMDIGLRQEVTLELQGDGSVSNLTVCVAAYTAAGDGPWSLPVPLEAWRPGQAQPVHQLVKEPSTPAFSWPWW
As to the kind of experiment: Affinity ELISA of CPE mutant antibodies for binding to Axl at pH 6.0 over pH 7.4. The settings on record: heavy chain variable region mutants; for Affinity ELISA CPE mutant ratio (1:3, pH 6.0/7.4): 1:3 dilution; for Affinity ELISA CPE mutant ratio (1:9, pH 6.0/7.4): 1:9 dilution. The procedure, abridged: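 Single-point mutant anti-Axl antibody library (CPE) screened by ELISA for binding at pH 6.0 versus pH 7.4, at 1:3 and 1:9 antibody dilutions, in serum with FLAG-tag detection and carbonate (Krebs-Ringer) buffer. Selection criterion: pH 6.0/pH 7.4 binding ratio ≥1.5 at either dilution.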

In assay [2] the target is Axl (UniProt P30530). As to the kind of experiment: ELISA, 1:9 dilution. On the technique in general: In an ELISA, binding on a coated surface is turned into a signal by an enzyme label.
The target of assay [3] is Axl (UniProt P30530). Nature of the assay: ELISA, 1:3 dilution.

B1: HC-F105S (antibody, V domains shown)
VH: EVQLVQSGAEVKKPGATVKISCKVSGYSFTGHTMNWIRQPPGKGLEWIGLIKPSNGGTSYNQKFKGRVTISADKSISTAYLQWSSLKASDTAMYYCAHGHYESYSAMDYWGQGTLVTVSS
VL: DIQMTQSPSSLSASVGDRVTITCKASQDVSSAVAWYQQKPGQAPRLLIYWASTRHTGVPSRFSGSGSGTEFTLTISSLQPDDFATYYCQEHFSTPLTFGQGTKVEIK
With B1, the results for the “Affinity ELISA CPE mutant ratio (1:3, pH 6.0/7.4)” value with Axl [1] and with Axl [3] were 3.898 and 3.9, respectively. Also, the “Affinity ELISA CPE mutant ratio (1:9, pH 6.0/7.4)” value in the assay with Axl [1] was found to be 4.545; with Axl [2], 4.54.

B2: HC-A106D (antibody, V domains shown)
VH: EVQLVQSGAEVKKPGATVKISCKVSGYSFTGHTMNWIRQPPGKGLEWIGLIKPSNGGTSYNQKFKGRVTISADKSISTAYLQWSSLKASDTAMYYCAHGHYESYFDMDYWGQGTLVTVSS
VL: DIQMTQSPSSLSASVGDRVTITCKASQDVSSAVAWYQQKPGQAPRLLIYWASTRHTGVPSRFSGSGSGTEFTLTISSLQPDDFATYYCQEHFSTPLTFGQGTKVEIK
Turning to B2, the “Affinity ELISA CPE mutant ratio (1:3, pH 6.0/7.4)” value with Axl [1] came out at 3.389; with Axl [3], 3.39. For the same molecule, the “Affinity ELISA CPE mutant ratio (1:9, pH 6.0/7.4)” value is 2.506 in the assay with Axl [1] and 2.51 with Axl [2].

B3: HC-E102M (antibody, V domains shown)
VH: EVQLVQSGAEVKKPGATVKISCKVSGYSFTGHTMNWIRQPPGKGLEWIGLIKPSNGGTSYNQKFKGRVTISADKSISTAYLQWSSLKASDTAMYYCAHGHYMSYFAMDYWGQGTLVTVSS
VL: DIQMTQSPSSLSASVGDRVTITCKASQDVSSAVAWYQQKPGQAPRLLIYWASTRHTGVPSRFSGSGSGTEFTLTISSLQPDDFATYYCQEHFSTPLTFGQGTKVEIK
For B3, the “Affinity ELISA CPE mutant ratio (1:3, pH 6.0/7.4)” value in the assay with Axl [1] was found to be 2.079; with Axl [3], 2.08. Also, the figures for the “Affinity ELISA CPE mutant ratio (1:9, pH 6.0/7.4)” value with Axl [1] and with Axl [2] were 2.363 and 2.36, respectively.

B4: HC-E102H (antibody, V domains shown)
VH: EVQLVQSGAEVKKPGATVKISCKVSGYSFTGHTMNWIRQPPGKGLEWIGLIKPSNGGTSYNQKFKGRVTISADKSISTAYLQWSSLKASDTAMYYCAHGHYHSYFAMDYWGQGTLVTVSS
VL: DIQMTQSPSSLSASVGDRVTITCKASQDVSSAVAWYQQKPGQAPRLLIYWASTRHTGVPSRFSGSGSGTEFTLTISSLQPDDFATYYCQEHFSTPLTFGQGTKVEIK
Consider B4, for which the figures for the “Affinity ELISA CPE mutant ratio (1:3, pH 6.0/7.4)” value with Axl [1] and in the assay with Axl [3] were 2.076 and 2.08, respectively. Further, the “Affinity ELISA CPE mutant ratio (1:9, pH 6.0/7.4)” value with Axl [1] is 2.315; with Axl [2], 2.31.

B5: HC-W110N (antibody, V domains shown)
VH: EVQLVQSGAEVKKPGATVKISCKVSGYSFTGHTMNWIRQPPGKGLEWIGLIKPSNGGTSYNQKFKGRVTISADKSISTAYLQWSSLKASDTAMYYCAHGHYESYFAMDYNGQGTLVTVSS
VL: DIQMTQSPSSLSASVGDRVTITCKASQDVSSAVAWYQQKPGQAPRLLIYWASTRHTGVPSRFSGSGSGTEFTLTISSLQPDDFATYYCQEHFSTPLTFGQGTKVEIK
Consider B5, for which the “Affinity ELISA CPE mutant ratio (1:3, pH 6.0/7.4)” value in the assay with Axl [1] came to 4.304; with Axl [3], 4.3. Moreover, the “Affinity ELISA CPE mutant ratio (1:9, pH 6.0/7.4)” value in the assay with Axl [1] is 0.800; with Axl [2], 0.8.

B6: HC-E102D (antibody, V domains shown)
VH: EVQLVQSGAEVKKPGATVKISCKVSGYSFTGHTMNWIRQPPGKGLEWIGLIKPSNGGTSYNQKFKGRVTISADKSISTAYLQWSSLKASDTAMYYCAHGHYDSYFAMDYWGQGTLVTVSS
VL: DIQMTQSPSSLSASVGDRVTITCKASQDVSSAVAWYQQKPGQAPRLLIYWASTRHTGVPSRFSGSGSGTEFTLTISSLQPDDFATYYCQEHFSTPLTFGQGTKVEIK
Take B6: the results for the “Affinity ELISA CPE mutant ratio (1:3, pH 6.0/7.4)” value with Axl [1] and with Axl [3] were 2.674 and 2.67, respectively. In addition, the “Affinity ELISA CPE mutant ratio (1:9, pH 6.0/7.4)” value with Axl [1] was 2.853; in the assay with Axl [2], 2.85.

B7: HC-A106G (antibody, V domains shown)
VH: EVQLVQSGAEVKKPGATVKISCKVSGYSFTGHTMNWIRQPPGKGLEWIGLIKPSNGGTSYNQKFKGRVTISADKSISTAYLQWSSLKASDTAMYYCAHGHYESYFGMDYWGQGTLVTVSS
VL: DIQMTQSPSSLSASVGDRVTITCKASQDVSSAVAWYQQKPGQAPRLLIYWASTRHTGVPSRFSGSGSGTEFTLTISSLQPDDFATYYCQEHFSTPLTFGQGTKVEIK
B7: the “Affinity ELISA CPE mutant ratio (1:3, pH 6.0/7.4)” value was determined as 1.519 in the assay with Axl [1] and 1.52 with Axl [3]. Also, the “Affinity ELISA CPE mutant ratio (1:9, pH 6.0/7.4)” value with Axl [1] was determined as 2.196; with Axl [2], 2.2.

B8: HC-F105T (antibody, V domains shown)
VH: EVQLVQSGAEVKKPGATVKISCKVSGYSFTGHTMNWIRQPPGKGLEWIGLIKPSNGGTSYNQKFKGRVTISADKSISTAYLQWSSLKASDTAMYYCAHGHYESYTAMDYWGQGTLVTVSS
VL: DIQMTQSPSSLSASVGDRVTITCKASQDVSSAVAWYQQKPGQAPRLLIYWASTRHTGVPSRFSGSGSGTEFTLTISSLQPDDFATYYCQEHFSTPLTFGQGTKVEIK
Regarding B8, the figures for the “Affinity ELISA CPE mutant ratio (1:3, pH 6.0/7.4)” value with Axl [1] and with Axl [3] were 3.463 and 3.46, respectively. Further, the “Affinity ELISA CPE mutant ratio (1:9, pH 6.0/7.4)” value with Axl [1] came to 4.021; with Axl [2] it was 4.02.

B9: HC-F105V (antibody, V domains shown)
VH: EVQLVQSGAEVKKPGATVKISCKVSGYSFTGHTMNWIRQPPGKGLEWIGLIKPSNGGTSYNQKFKGRVTISADKSISTAYLQWSSLKASDTAMYYCAHGHYESYVAMDYWGQGTLVTVSS
VL: DIQMTQSPSSLSASVGDRVTITCKASQDVSSAVAWYQQKPGQAPRLLIYWASTRHTGVPSRFSGSGSGTEFTLTISSLQPDDFATYYCQEHFSTPLTFGQGTKVEIK
Consider B9, for which the “Affinity ELISA CPE mutant ratio (1:3, pH 6.0/7.4)” value was found to be 2.429 in the assay with Axl [1] and 2.43 with Axl [3]. Also, the “Affinity ELISA CPE mutant ratio (1:9, pH 6.0/7.4)” value stood at 2.801 with Axl [1] and 2.8 with Axl [2].

B10: HC-E102G (antibody, V domains shown)
VH: EVQLVQSGAEVKKPGATVKISCKVSGYSFTGHTMNWIRQPPGKGLEWIGLIKPSNGGTSYNQKFKGRVTISADKSISTAYLQWSSLKASDTAMYYCAHGHYGSYFAMDYWGQGTLVTVSS
VL: DIQMTQSPSSLSASVGDRVTITCKASQDVSSAVAWYQQKPGQAPRLLIYWASTRHTGVPSRFSGSGSGTEFTLTISSLQPDDFATYYCQEHFSTPLTFGQGTKVEIK
Consider B10, for which the “Affinity ELISA CPE mutant ratio (1:3, pH 6.0/7.4)” value in the assay with Axl [1] amounted to 1.798; in the assay with Axl [3], 1.8. The results for the “Affinity ELISA CPE mutant ratio (1:9, pH 6.0/7.4)” value with Axl [1] and with Axl [2] were 2.677 and 2.68, respectively.

B11: HC-W110T (antibody, V domains shown)
VH: EVQLVQSGAEVKKPGATVKISCKVSGYSFTGHTMNWIRQPPGKGLEWIGLIKPSNGGTSYNQKFKGRVTISADKSISTAYLQWSSLKASDTAMYYCAHGHYESYFAMDYTGQGTLVTVSS
VL: DIQMTQSPSSLSASVGDRVTITCKASQDVSSAVAWYQQKPGQAPRLLIYWASTRHTGVPSRFSGSGSGTEFTLTISSLQPDDFATYYCQEHFSTPLTFGQGTKVEIK
On to B11, for which the “Affinity ELISA CPE mutant ratio (1:3, pH 6.0/7.4)” value with Axl [1] was 7.469; with Axl [3], 7.47. Also, the figures for the “Affinity ELISA CPE mutant ratio (1:9, pH 6.0/7.4)” value with Axl [1] and with Axl [2] were 1.372 and 1.37, respectively.
